# According to patent publication US20160304584, “MAFB MUTANTS AND USES THEREOF” (INSERM (INSTITUT NATIONAL DE LA SANTÉ ET DE LA …, published 2016):
# Experiments:
# [1] = biological target: MafB (wt) fragment 211-305 C298S, homodimer (Mus musculus, UniProt P54841 SEQ:211-305, C298S); assay: structure; 2.9 A crystal structure; 50 mM MgCl2 in complex buffer; conditions: chain copies: 2
# Protocol: The C-terminal region of MafB from Mus musculus (residues 211-305, C298S) was purified as previously described (Textor et al., 2007). Homodimeric MafB₂ complexes were dialyzed overnight into 30 mM Tris-HCl (pH 7.3), 80 mM NaCl, 50 mM MgCl₂ and 3 mM β-mercaptoethanol at room temperature in the presence of an oligonucleotide encompassing the T-MARE-binding site (forward: […] (SEQ ID NO:3); reverse: […] (SEQ ID NO:4), METABION). The protein-DNA complex was further purified by size exclusion chromatography on a Superdex-75 (16/60) column (GE), equilibrated with the dialysis buffer. The pooled peak fractions corresponding to the (MafB)₂/T-MARE complex were analyzed by SDS-PAGE and native PAGE gels and concentrated to 5 mg/mL, using a centrifugal concentrator with a polyethersulfone membrane with a 10,000 MWCO (VIVASPIN, Sartorius Stedim Biotech). Crystallization drops of 400 nL volume, using a 1:1 protein/mother liquor ratio, were set up in 96-well sitting-drop plates and allowed to equilibrate at 19° C. Diffracting crystals grew in the presence of 0.1 M Na-citrate (pH 5.0), 15% [w/v] PEG-4000, 5% [v/v] PEG-400, and 0.1 M MgCl₂.
# MafB (wt) homodimer [2] = biological target: T1, MafB (wt) homodimer (UniProt P54841 SEQ:211-305); assay: EMSA; comparable to heterodimer at equimolar c-Fos; favoured with excess MafB; conditions: chain copies: 2; label: 32P
# Protocol: (§1) Double-stranded synthetic oligonucleotides corresponding to the T-MARE(a) ([…]) (SEQ ID NO:5), to T-MARE(beta) ([…]) (SEQ ID NO:6) or to T-MARE(y) ([…]) (SEQ ID NO:7) sites were incubated with Klenow fragment DNA polymerase in the presence of [α³²P][…] and purified on Qiaquick Spin Columns (Qiagen). Increasing amount (0.25 to 64 pmol) of recombinant c-Fos and recombinant protein (4 pmol) of MafB (wt) or MafB (E269R) and MafB (V277N) mutants were incubated with 0.05 ng of probe in 20 μL of binding reaction buffer (20 mM Tris-HCl (pH 7.5), 100 mM KCl, 0.1 mM EDTA, 5% glycerol, 0.1% Triton X-100, 0.02% BSA, […] poly d[I-C]) for 20 min. Complexes formed were resolved on a 6% polyacrylamide (acrylamide/bisacrylamide ratio, 29:1) non-denaturating gel (Bio-Rad) in 0.5% Tris-glycine. Gels were dried and autoradiographed at −80° C.
# [3] = biological target: T2, MafB (wt)/c-Fos heterodimer (UniProt P54841;P01101 P54841:211-305,P01101:138-200); assay: EMSA; comparable to homodimer at equimolar ratio; favoured with excess c-Fos; conditions: label: 32P
# Protocol: as §1
# [4] = biological target: MafB (E269R) full-length with c-Fos (UniProt P54841;P01101 P54841:1-323,P01101:1-380, MafB E269R); assay: cell_activity; luciferase, HEK293, with c-Fos
# Protocol: HEK293 cells were grown in Dulbecco's modified eagle's medium supplemented with 10% fetal bovine serum in six-well plates to reach 60-80% confluence at the time of transfection. DNA was transfected by calcium phosphate precipitation procedure as previously described (Sieweke et al., 1996). pTK81 luciferase reporter constructs (200 ng) (Promega) containing three multimerized T-MARE(alpha) ([…] CA […]), T-MARE(beta) ([…] CA […]), or T-MARE (y) ([…] […]) were cotransfected with 200 ng of Rc/CMV (Invitrogen) constructs driving the expression of wt and mutant full-length MafB with or without 200 ng of Rc/CMV construct driving the expression of c-Fos or no transgene (vector control). Assays were performed in duplicate. The transfection efficiency was normalized by assaying for β-galactosidase activity from a cotransfected CVM-LacZ construct, and luciferase activity was analyzed as previously described (Sieweke et al., 1996). […] The transfection efficiency was normalized, by assaying for β-galactosidase activity from a cotransfected CVM-LacZ construct, and luciferase activity was analyzed using a dual-luciferase reporter assay system (Promega, Cat: E1910) according to the manufacturer's recommendations.
# MafB (wt) homodimer [5] = biological target: T1, MafB (wt) homodimer; assay: EMSA; only homodimer bound; conditions: chain copies: 2; label: 32P
# Protocol: as §1
# MafB (V277N) homodimer = MafB (V277N) homodimer (UniProt P54841 SEQ:211-305, V277N); assay: EMSA; no enhanced site selection compared with wt; conditions: chain copies: 2; label: 32P
# Protocol: as §1
# [6] = biological target: T2, MafB (wt)/c-Fos heterodimer; assay: EMSA; no significant heterodimer detected; conditions: label: 32P
# Protocol: as §1
# [7] = biological target: T2, MafB (wt)/c-Fos heterodimer; assay: EMSA; strongly preferred over homodimer; conditions: label: 32P
# Protocol: as §1
# [8] = biological target: MafB (V277N)/c-Fos heterodimer (UniProt P54841;P01101 P54841:211-305,P01101:138-200, MafB V277N); assay: EMSA; binding unchanged versus wt; conditions: label: 32P
# Protocol: as §1
# [9] = biological target: MafB (E269R)/c-Fos heterodimer (UniProt P54841;P01101 P54841:211-305,P01101:138-200, MafB E269R); assay: EMSA; exclusive heterodimer even at residual c-Fos; conditions: label: 32P
# Protocol: as §1
# T2 sequence (P54841 211-305, chain 1 of 2): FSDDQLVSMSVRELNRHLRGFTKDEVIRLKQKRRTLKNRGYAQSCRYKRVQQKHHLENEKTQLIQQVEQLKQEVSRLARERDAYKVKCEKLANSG
# T2 sequence (P01101 138-200, chain 2 of 2): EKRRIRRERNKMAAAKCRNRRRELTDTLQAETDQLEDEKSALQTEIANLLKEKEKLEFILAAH
# T1 sequence (P54841 211-305): as the sequence (P54841 211-305, chain 1 of 2) above
# MafB (E269R)/c-Fos heterodimer, sequence (P54841 211-305 E269R, chain 1 of 2): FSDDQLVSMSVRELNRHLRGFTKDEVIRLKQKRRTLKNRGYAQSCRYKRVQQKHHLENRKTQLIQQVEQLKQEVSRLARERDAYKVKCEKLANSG
# MafB (E269R)/c-Fos heterodimer, sequence (P01101 138-200, stated change not applied, chain 2 of 2): as the sequence (P01101 138-200, chain 2 of 2) above
# MafB (E269R) full-length with c-Fos, sequence (P54841 whole entry E269R, chain 1 of 2): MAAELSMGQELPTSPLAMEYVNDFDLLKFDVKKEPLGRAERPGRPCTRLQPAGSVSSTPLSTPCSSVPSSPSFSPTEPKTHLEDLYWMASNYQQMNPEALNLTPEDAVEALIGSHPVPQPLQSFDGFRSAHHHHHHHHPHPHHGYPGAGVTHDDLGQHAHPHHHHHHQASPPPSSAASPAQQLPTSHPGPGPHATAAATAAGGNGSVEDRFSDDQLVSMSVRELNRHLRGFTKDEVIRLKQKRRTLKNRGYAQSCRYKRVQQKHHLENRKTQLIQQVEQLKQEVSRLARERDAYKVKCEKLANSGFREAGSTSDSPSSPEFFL
# MafB (E269R) full-length with c-Fos, sequence (P01101 whole entry, stated change not applied, chain 2 of 2): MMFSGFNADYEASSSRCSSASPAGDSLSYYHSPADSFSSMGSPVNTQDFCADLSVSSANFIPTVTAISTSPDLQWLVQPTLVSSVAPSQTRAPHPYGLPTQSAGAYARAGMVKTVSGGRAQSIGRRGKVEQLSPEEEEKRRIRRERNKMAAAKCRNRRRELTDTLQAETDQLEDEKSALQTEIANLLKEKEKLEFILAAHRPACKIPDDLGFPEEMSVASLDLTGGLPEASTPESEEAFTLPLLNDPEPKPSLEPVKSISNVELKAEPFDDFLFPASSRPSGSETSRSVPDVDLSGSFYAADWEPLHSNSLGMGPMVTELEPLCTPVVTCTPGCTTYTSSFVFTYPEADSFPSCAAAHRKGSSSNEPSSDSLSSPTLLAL
# MafB (V277N)/c-Fos heterodimer, sequence (P54841 211-305 V277N, chain 1 of 2): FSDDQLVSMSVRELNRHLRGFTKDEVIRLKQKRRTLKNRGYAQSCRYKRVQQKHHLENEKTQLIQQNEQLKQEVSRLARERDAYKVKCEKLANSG
# MafB (V277N)/c-Fos heterodimer, sequence (P01101 138-200, stated change not applied, chain 2 of 2): as the sequence (P01101 138-200, chain 2 of 2) above
# MafB (V277N) homodimer, sequence (P54841 211-305 V277N): as the sequence (P54841 211-305 V277N, chain 1 of 2) above
# MafB (wt) fragment 211-305 C298S, homodimer, sequence (P54841 211-305 C298S): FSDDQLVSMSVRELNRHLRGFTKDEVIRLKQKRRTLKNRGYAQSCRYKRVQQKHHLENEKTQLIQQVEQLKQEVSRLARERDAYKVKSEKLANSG
binder,measurement,setting,value
T-MARE 20-bp (dsDNA) DNA 1: TAATTGCTGACTCAGCAATT DNA 2: TAATTGCTGAGTCAGCAATT,binding result,[1],binds
T-MARE(alpha) (dsDNA) DNA 1: TCGTCCCTTATGCTGACTCAGCAATTCTC DNA 2: GAGAATTGCTGAGTCAGCATAAGGGACGA,binding result,MafB (wt) homodimer [2],binds
same,binding result,[3],binds
T-MARE(beta) x3 reporter (dsDNA) DNA 1: TCGACCTCCCCTCCTATGAGTCAGCAATTCTCTCGAGCTCCCCTCCTATGAGTCAGCAATTCTCTCGAGCTCCCCTCCTATGAGTCAGCAATTCTCGTCGACCC DNA 2: GGGTCGACGAGAATTGCTGACTCATAGGAGGGGAGCTCGAGAGAATTGCTGACTCATAGGAGGGGAGCTCGAGAGAATTGCTGACTCATAGGAGGGGAGGTCGA,activity,[4],5 fold vs wt
T-MARE(gamma) (dsDNA) DNA 1: TCGTCCCTTATGCCTACTAGGCAATTCTC DNA 2: GAGAATTGCCTAGTAGGCATAAGGGACGA,binding result,MafB (wt) homodimer [5],binds
same,binding result,MafB (V277N) homodimer,binds
same,binding result,[6],no binding
T-MARE(beta) (dsDNA) DNA 1: TCGTCCCCTCCTATGAGTCAGCAATTCTC DNA 2: GAGAATTGCTGACTCATAGGAGGGGACGA,binding result,[7],binds
same,binding result,[8],binds
same,binding result,[9],binds
